Data published in the nanobody polyreactivity screen of Harvey et al. (2022).

Experiment: yeast display, Sf9 membrane polyspecificity reagent, FACS + sequencing; frameworks hold sequencing errors
Method in brief: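 Synthetic nanobody libraries on Saccharomyces cerevisiae BJ5465 were galactose-induced for 36–48 hours, stained 1 hour at 4 °C with 10% biotinylated, detergent-solubilized Sf9 membrane reagent and enriched on streptavidin microbeads. FACS then separated cells into low and high (top ~1%) gates by anti-HA (expression) and streptavidin (reagent binding) fluorescence. Genes were colony-PCR amplified, MiSeq 2 × 250 sequenced and CDR-length filtered. A clone's polyreactivity label is that of its gate of origin.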

Row | Sequence | polyreactivity (PSR sort gate)
1 | QVQLVESGGGLVQAGGSLRLSCAASGYTFWQYAMGWYRQAPGKERELVATITSRGGSTYYADSVKGRFTISRDNAKNTVYLQMNSLKPEDSAVYYCNARRRYSTRRSDYWGQGTQVTVSS | high polyreactivity
2 | QVQLVESGGGLVQAGGSLRLSCAASGRTFWYYTMGWYRQAPGKERELVAAISSGGRTNYADSVKGRFTISRDNAKNTVYLQMNSLKPEDTAVYYCATSRYYKYVERDYWGQGTQVTVSS | high polyreactivity
3 | QVQLVESGGGLVQAGGSLRLSCADSGGTFESYAMGWYRQAPGKERELVAAITGRGGRTYYADSVKGRFTISRDNAKNTVYLQRNSLKPEDTAVYYCAARSPPRGYSRILDYWGQGTQVTVSS | high polyreactivity
4 | QVQLVESGGGLVQAGGSLRLSCAASGFTLPLYAMGWYRQAPGKERELVAAISSGGGRTYYADSVKGRFTISRDNAKNTVYLQMNSLKPEDTAVYYCNVDRWWLGWYKFNYWGQGTQVTVSS | high polyreactivity
5 | QVQLVESGGRLVQAGGSLLLSSAASGRTFGIYAMGWSRQSPGKERELCAAITWSGDSTYYADSVKGRFTISRDNAKNTVYIQMNSLKPEDTAVYYCAADYVGLTSVRYDYWGQGTQVTVSS | low polyreactivity
6 | QVQLVESGGGLVQAGGSLRLSCAASGSTFVGYAMGWYRQAPGKERELVAAISGSGTSTYYADSVKGRFTISRDNAKNTVYLQMNSLKPEDTAVYYCNADPIFVYSSYNYWGQGTQVTVSS | low polyreactivity
7 | QVQLVESGGGLVQAGGSLRLSCASSGIILYYYAMGWYRQAPGKERELVAAIDSGDSTDYADSVKGRFTISRDNAKNTVYLQMNSLKPEDTAVYYCAADSPVDEYYHWGQGTQVTVSS | low polyreactivity
8 | QVQLVESGGGLVQAGGSLRLSCAASGSIFDRYAMGWYIQAPGKERELVASITWRATSTYYADSVKGRFTISRDNAKNTVYLQMNSLKPEDTAVYYCAADVPWGWWDSDFSDNYYWGQGTQVTVSS | low polyreactivity
9 | QVQLVESGGGLVQAGGSLRLSCADSGRIFGYYAMGWYRQAPGKERELVAAITVSDGRTNYADSVKGRFTISRDNAKNTVYLQMNSLKPEDTAVYYCAAVTPFRVLYDYWGQGTQVTVSS | low polyreactivity
10 | QVQHVESGGGLGQAGGSLRLSCAASGLTFSVYAMGWSRQAPGKERELYAAISYSGVSTYADSEKGRFTISRDNAKNTVYLQMNSLKPEDTAVYYCNARWVREGYRRWYDYWGQGTQVTVSS | low polyreactivity
11 | QVQLVESGRGLVQAGGTLRISFADSGRIFGNYAMGRYRQAPGKERELVAAIPWRGGRTRYADSVKGRFTISRDNAKNTVYLQMNSLKPEDTAVYYCAAPYTSSGPDDYWGQGTQVTVSS | high polyreactivity
12 | QVQLVESGGGLVQAGGSLRLSCAASGSIFAKYAMGWYRQAPGKERELVAAISSGGSTYYADSVKGRFTISRDNAKNTVYIQMNSLKPEDTAVYYCAADYGSDYTKGDYWGQGTQVTVSS | low polyreactivity
13 | QVQLVESGGGLVQAGGSLRLSCPASGFIFRYYAMGWYRQAPGKERELVAAISWSGGSTNYADSVKGRFTISRDNAQNTVYLQINSLKPEDTALSYCADDGTVRSWGRYYHWGQGTQVTVSS | low polyreactivity
14 | QVQLVESGGGLVQAGGSLRLSCAASGLIFPRYTMGWYRQAPGKERELVAAIRGTGGSTYYADSVKGRFTISRDNPKNTVYLQLNSLKPEDTAVYYCATRGKSHGQQFNYWGQGTQVTVSS | high polyreactivity
15 | QVQLVESGGGLVQAGGSLRLSCAASGSTFDANAMGWYRQAPGKERELVARMSRSTGSTYYADSVKGRFTISRDTAMNSVYLQLNSLKPVDTAVYYCAKVSRASNKYGYWGQGTQVTVSS | high polyreactivity
16 | QVQLVESGGGLVQAGGSLRLSCAASGSIFTRYAMGWYRQAPGKERELVAAISYRGDRTYYADSVKGRFTISRDNAKNTVYLQMNSLKPEDTAVYYCAATVQYSPIYDYWGQGTQVTVSS | high polyreactivity
17 | QVQLVESGGGLVQAGGSLRLSCAASGFIFDEYTMGWYRQAPGKERELVAAITSSGGTDYADSVKGRFTISRDNAKNTVYLQMNSLKPEDTAVYYCNTEDYYRDYDYWGQGTQVTVSS | low polyreactivity
18 | QVQLVESGGGLVQAGGSLRLSCAASGRTFNTYAMGWYSQAPGKERELVAAISRRGGSTYYADSVKGRFTISRDNAKNTDYLQMNSLKPEDTAVYYCAAGNSVGLGWGQGTQVTVSS | high polyreactivity
19 | QVQLVESGGGLVQAGGSLRLSCAASGSIFYNYAMGWYRQAPGKEREFVAAISRSGGSTYYADSVKGRFTISRDNAKNTVYLQMNSLKPEDSAVYYCAASTRYSAFYPYGYWGQGTQVTVSS | high polyreactivity
20 | QVQLVESGGGLVQAGGSLRLSCAASGRIFARNAMGWYRQAPGKERELVAAITYSGGSTYYADSVKGRFTISRDNAKNTVYLQMNSLKPEDTAVYYCAAETSNRGRRYYYWGQGTQVTVSS | high polyreactivity
21 | QVQLVESGGGLVQAGGSLRLSCAASGIIFEFYAMGWYRQAPGKEREFVAAISKNGGRTYYADSVKGRFTISRDNAKTSVYLQLNSLKPEDTAVYYCDARYRPQANKYYYWGQGTQVTVSS | high polyreactivity
22 | QVQLVESGGGLVQAGGSLRLSCAASGGTFTTNAMGWYRQAPGKERELVAAITSSGVRTYYADSVKGRFTISRDNAKNTVYLQMNSLKPEDTAVYYCNAVTRYVRLTDDDYWGQGTQVTVSS | high polyreactivity

Row | Sequence | polyreactivity (PSR sort gate)
23 | QVQLVESGGGLVQAGGSLRLSCAASGRTFIYNTMGGYRQAPGKERELVAAITGNGGSTYYADSVKGRFTISRDYEKNTVYFQMNSLKPEDTAVYYCNAVGFDQPRYYYWGQGTQVTVSS | high polyreactivity
24 | QVQLVESGGGLVQAGGSLRLSCAASGSIFRYNAMGWYRQAPGKERELVASISISDGSTYYADSVKGRFTISRDNAKNTVYLQMKSLKPEDTAVYYCAARTRDFYYPYDYWGQGTQVTVSS | low polyreactivity
25 | QVQLVESGGGLVQAGGSLRLSCAASGIIFLYYAMGWYRQAPGKERELVAAISRSGGRTFYADSVKGRFTISRDNAKNTVFLQMNSLKAEDTAVYYCAADALIYYKGSPDYYWGQGTQVTVSS | high polyreactivity
26 | QVQLEESGGRLVQAGGSLRLSCAASGGILRGYGMGWYRQAQGKQRELVAVISRRGGSTYYADSVKGRFTISRDNAKNTVYLQMNRLKPEVTAVYYCAADLKTGFLEYDYWGQGTQVTVSS | high polyreactivity
27 | QVQLVESVGGLVQAGGSLRLSCAASGSTFTSNAMGWYRQAPGKEREFVAAISVGGGITYYADSVKGRFTISRDNAKNTVYLQMNSLKPEDTAVYYCAADAWSVILWREMDYWGQGTQVTVSS | low polyreactivity
28 | QVQLVESGGGLVQAGGSLRLTCAASGSIFGDYAMGWYRQAPGKEREFVAGITRRGGRTYYADSVKGRFTISRDNAKNTVYLQMNSLKPEDTAVYYCNAVYSSSLRSKYDYWGQGTQVTVSS | high polyreactivity
29 | QVQLVQTGGGLVQAGGSLRLSCAASGSTFWYNAMGWSRQAPGKERELVARISYSGGSTYYADSVKGRFTISRDNAKNTVYLQMNCLKPEDTAVEYCAGRRPYKYDYWGQGTQVTVSS | high polyreactivity
30 | QVQLVESGGGLVQAGGRLRLSCPASGRTFRGYARGWYRQAPRKERELLAAITSGGSTNYADSVKGRFTISRDNAKNTVYLQKKSLKPEDTAVYYCAADSWFYGGEYKLGYYWGQGTQVSVSS | low polyreactivity
31 | QVQLVESVGGLVQAGGSLRLSCAASGSNFYVNAMGWYRQAPGKERELVAAISRRGGSTYYADSVKGRFTISRDNAKNTVSLQMNSLKPEDTAVYYCNKAIRGQAPSGPEYYYWGHGTQVTVSS | high polyreactivity
32 | QVQLVESGGGLVQAGGSLRLSCAASGSTFRYNAMGWYRQAPGKERELVAAITSTGDSTYYADSVKGRFTISRDNAKNTVYLQMNSLKPEDTAVYYCAARSYASPGWRYEYWGQGTQVTVSS | low polyreactivity
33 | QVQLVESGGGLVQAGGSLRLSCAASGRTYGGYAMGWYRQAPGKERELVAVINWRGGSTYYADSVKGRFTISRDNAKHTVYLQMNILKPEDTAVYYCNKVSLRTQSAQFHYWGQGTQVTVSS | high polyreactivity
34 | QVQLVESGGGLVQAGGSLRLSCAASGFTFYWYAMGWYRQAPGKERELVATINWRGDTYYADSVKGRFTISRDNAKNTVYLQMNSLKPEDTAVYYCAATKRLAPRPLRLGYGSYNFCGQGTQVTVSS | high polyreactivity
35 | QVQLVESGGGLVQAGGSLRLSCAASGRICGSYAMGWYRQAPGKERELVAAISWRGTSTYYADSVKGRFTISRDNAKNTVYLQMNSLKPEDTAVYYCAAAVDAFTNKQYYYWGQGTLVTVSS | low polyreactivity
36 | QVQLVESGGGLVQAGGSLRLSCAASGSTFDGNAMGWYRQAPGKDRELVAAITWRDGSPSYADSVKGRFTISRDNAKNTVYLQMNSLKPEDTAVYYCNADPGYLDEEYWGQGTQVTVSS | low polyreactivity
37 | QVQLVESGGGLVQAGGSLRLSCAASGRTFWGNAMGWYRQAPGKDRELVAAITSGGSTYYADSVKGRFTISRDNAKNTVYLQMNSLKPEDTAVYYCATRRIYKWYRYYYWGQGTQVTVSS | high polyreactivity
38 | QVQLVESGGGLVQAGGSLRLSCAASGFTFYRYAMGWYRPAPGKERELVAAITRVGSTYYADSVKGRFTISRDNAKNTVYLQMNSLKPEDTAVYYCNARGTVPWYGYDYWGQGTQVTVSS | high polyreactivity
39 | QLQLVESGGGLVQAGGSLRLSCAASGFTFYLYVLGWYRQAPGKEREFVAAITGSGTSTYYADSVKGRFTISRDNAKNTVYLQMNSLKPEDTAVYYCNAKRDRYFYTVKYDYWGQGTQVTVSS | low polyreactivity
40 | QVQLVESGGGLVQAGGSLRLSCAASGRIFYAYVMGWYRQAPGKERELVAAITSSGGSTYYADSVKGRFTISRDNAKNTVYLQMNSLKPEDTAVYYCNARSYPRWLRYDYWGQGTQVTVSS | low polyreactivity
41 | QVQLVESWGGLVQAGGSLRLSCAASGITFPINTMGWYRQAPGKERELVAGIDWTGGSTYYADSVKGRFTISRDNAKNTVYLQMNSLKPEDTAVYYCAKRSYTGYEYWGQGTQVTVSS | low polyreactivity
42 | QVQLVESGVGLVQAGGSLRLSCAASGSTFANNAMGWYRQAPGKERELVAAISWSGGSTYYADSVKGRFTISRDNAKNTVYLQMNSLKPEDTAVYYCAADSPRYGGYGYWGQGTQVTLSS | low polyreactivity
43 | QVQLVESGGGLVQAGGRLRLSFAASGITFYVYTMGWYRQAPGKERELVPAISTTGSTNYADSVKGRFTISRDNAKNTVYLQMNSLKPEDTAVYYCNAKYYWLVFEYDYWGQGTQVTVSS | high polyreactivity
